Assay [1] has as its target T1, recombinant E2F1 and DP1 (Homo sapiens, UniProt Q01094).
T1 construct: Purified E2F1 N1-His (64-301) and DP1 N2-GST (84-249) were incubated at 10 μg/ml; His; made in house; host or cells: E. coli BL21 DE3 (pET28b) for E2F1
Description: Band shift assay with recombinant E2F1 and DP1, B-myb E2F-binding site as probe. The conditions noted are these: for IC50: B-myb E2F-binding site as probe, read-out: IC50, inhibition of DNA binding; for inhibition: SEQ ID NO: 2 Alanine-scanning. Here is the method: N-terminal fragments of human E2F1 (aa 64-301), E2F2 (aa 69-306), E2F3 (aa 128-356), E2F4 (aa 1-198), E2F5 (aa 42-233) were cloned into bacterial expression vector pET28b (Novagen) and were purified from BL21 DE3 cells by immobilised metal-affinity chromatography. A N-terminal fragment of DP1 (aa 85-249) was expressed as GST fusion protein and purified by glutathione-affinity chromatography.
Purified E2F1 N1-His (64-301) and DP1 N2-GST (84-249) were incubated at 10 μg/ml in a buffer containing 10 mM HEPES, […], 1 mM EDTA, […], 33 mg/ml BSA and 0.1 μg of sonicated salmon sperm for 10 minutes on ice. ^32P-labelled probe was added and the reaction mixture was incubated at room temperature for 20 minutes. Probes were labelled by filling-in 5′ overhanging ends of 4-7 bases. Samples were run on 4% non denaturing polyacrylamide gel in 0.5% TBE at 4° C. Gels were exposed to X-ray films. Nuclear extract (3 μg) was incubated in 17 μl buffer containing 0.3 M NaCl, 0.4 M Tris pH 7.9, 100 mM EDTA, 0.4 M DTT, 13% glycerol, 1 μg of sonicated salmon sperm on ice. The samples were then incubated for 10 minutes at 30° C. and cooled on ice. ^32P-labelled probe was added, the reaction mixtures were incubated for another 10 minutes at 30° C. and then cooled on ice.
• B-myb: (5′-[…]) (SEQ ID NO:16) • NF-Y: 5′-ATTTTTCTGATTTGGTTAA (SEQ ID NO:17) • Spl: 5′-ATGGGGCGGAGA (SEQ ID NO:18) • ATF: 5′-[…] (SEQ ID NO:19) Introduction of Peptides into Mammalian Cells
The inhibitory potential of the peptides on E2F function was analysed in band shift assays with recombinant E2F1 and DP1. […] The IC50 concentrations for the 3 peptides were in the range of 50-100 μM. Inhibition to various extends was also observed using recombinant fragments of E2F2, E2F3, E2F4, E2F5, respectively. Approximately 100-fold lower IC50 values were found with a branched molecule consisting of 4 copies of SEQ ID NO:2 linked by MAP (multiple antigen peptide).

Assay [2] deals with HeLa cells. Put plainly: BrdU incorporation cell proliferation assay, HeLa cells. Format: cell-based. The following applies: 24 hrs, dose-dependent. Here is the method:
(§1) HeLa cells were grown in Dulbecco's Modified Eagle's Medium (DMEM) supplemented with fetal calf serum (FCS) and HL60 cells in RPMI 1640 supplemented with 10% FCS. Cells were treated with peptides in culture medium and incubated overnight before harvesting.
The peptides were tested in further experiments for their effect on cell cycle progression and cell viability. For this purpose, the peptides were conjugated at their C-terminus to a cell penetrating HIV-Tat derived peptide (aa 48-60) (Fawell et al. (1994) Proc. Natl. Acad. Sci. USA 91, 664-668).
(§2) HeLa, 3T3, W138 cells were treated with varying concentration of MAP-4-SEQ ID NO:2-TAT and a control peptide MAP-4-SEQ ID NO:39-TAT wherein SEQ ID NO:39 is SEQ ID NO:2 but containing 2 alanine substitutions at positions 1 and 4, i.e. AVRAHF (SEQ ID NO:39) DNA replication was analysed by BrdU incorporation after 24 hours.
(§3) Four tumor cell lines U2OS (osteosarcoma), C33A (cervical carcinoma), HeLa (cervical carcinoma) and E2F4/ras (derived from primary rat embryo fibroblasts) were treated with the branched peptide MAP-4-SEQ ID NO:2-TAT or mutant control peptide MAP-4-SEQ ID NO:39-TAT for 24 hrs. Cell proliferation was measured using the BrDU proliferation assay from Boehringer Mannheim (Cat No. 1 647 229).
A general note: Incorporation of labelled thymidine or its analogues reports DNA synthesis.

Assay [3] concerns HL60 cells. Description: Growth of HL60 cells treated with peptide. The conditions noted are these: HL60 cells, concentrations between 1-5 μM. Format: cell-based. The method, then:
as §1, §2
(§4) Effects became visible after 5-24 hours defending on the concentration of the peptide.

For assay [4], the system named is HL60 cells. Description: Apoptosis, staining of HL60 cells with Heochst 33342 propidium iodide. Type of assay: cell-based. Here is the method:
as §4

In assay [5] the test system is HL60 cells. Put plainly: Nuclease-laddering assay (DNA laddering) in HL60 cells. Format: cell-based. The method, then:
Treated cells were collected, washed with PBS, resuspended in lysis buffer (50 mM Tris pH 7.9, 100 mM EDTA, pH 8, 100 mM NaCl, 1% SDS) and 500 μg/ml proteinase K and incubated at 55° C. for 18 h. Cells were then incubated with […] for 1 hour at 37° C., genomic DNA was purified and examined by agarose gel electrophoresis.
as §4

Assay [6] relates to CycA promoter. Description: Transcription from the CycA promoter, HeLa cells transiently transfected with CycA-Luciferase construct. Type of assay: cell-based. From the text: This finding is in agreement with the anti-repressor function of E2F in the CycA promoter, (Liu et al, Oncogene (1998), 16, 2957-2963).
The test system of assay [7] is U2OS (osteosarcoma). Description: BrDU proliferation assay, U2OS cells. Format: cell-based. The following applies: 24 hrs, dose-dependent. The method, then:
as §3

The test system of assay [8] is C33A (cervical carcinoma). Description: BrDU proliferation assay, C33A cells. Type of assay: cell-based. The conditions noted are these: 24 hrs, dose-dependent. Here is the method: as §3
In assay [9] the test system is E2F4/ras (derived from primary rat embryo fibroblasts). Put plainly: BrDU proliferation assay, E2F4/ras cells. Format: cell-based. The following applies: 24 hrs, dose-dependent. Here is the method: as §3
Assay [10] addresses E2F in nuclear extracts from F9 embryonal carcinoma cells. Put plainly: band shift with F9 nuclear extract; inhibition of E2F DNA binding.
Assay [11] addresses E2F in HeLa cells (nuclear extracts; endogenous E2F in transfected HeLa cells). Description: band shift with HeLa nuclear extract; inhibition of E2F DNA binding.
Assay [12] has as its target T2, recombinant E2F1 N1-His (64-301) with DP1 N2-GST (84-249) (human, UniProt Q01094 64-301; Q14186 84-249).
T2 construct: range 64-301;range 84-249; Both proteins were incubated together at 10 ug/ml in the band shift assay with a 32P-labelled B-myb E2F-site probe; also called recombinant E2F1 and DP1; not shown: His tag from vector pET28b; GST fusion partner
Put plainly: alanine scanning; grade of inhibition of E2F DNA binding (band shift).

The target in assay [13] is E2F1 overexpressed in stable transfected 3T3 cells (nuclear extract) (UniProt Q01094 1-437, limits assumed). Description: band shift, extract of 3T3 cells overexpressing E2F1; inhibition of DNA binding.
E2F1 overexpressed in stable transfected 3T3 cells (nuclear extract), sequence (Q01094 whole entry): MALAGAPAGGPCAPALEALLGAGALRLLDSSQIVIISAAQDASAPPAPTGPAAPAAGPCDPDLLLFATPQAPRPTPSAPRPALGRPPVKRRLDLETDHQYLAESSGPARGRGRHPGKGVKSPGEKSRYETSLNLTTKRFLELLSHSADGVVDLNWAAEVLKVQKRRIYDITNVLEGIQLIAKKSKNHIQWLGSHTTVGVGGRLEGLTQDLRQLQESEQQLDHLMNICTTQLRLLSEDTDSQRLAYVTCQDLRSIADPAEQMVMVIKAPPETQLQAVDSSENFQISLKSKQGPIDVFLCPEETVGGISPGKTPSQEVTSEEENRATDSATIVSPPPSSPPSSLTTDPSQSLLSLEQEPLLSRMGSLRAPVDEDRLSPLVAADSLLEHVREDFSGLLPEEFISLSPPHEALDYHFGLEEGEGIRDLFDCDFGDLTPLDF
Description: (§5) Probes were labelled by filling-in 5' overhanging ends of 4–7 bases. Samples were run on 4% non denaturing polyacrylamide gel in 0.5% TBE at 4° C. Gels were exposed to X-ray films. […] The samples were then incubated for 10 minutes at 30° C. and cooled on ice. ^32P-labelled probe was added, the reaction mixtures were incubated for another 10 minutes at 30° C. and then cooled on ice.
The target in assay [14] is E2F2 overexpressed in stable transfected 3T3 cells (nuclear extract) (UniProt Q14209 1-437, limits assumed). Put plainly: band shift, extract of 3T3 cells overexpressing E2F2; inhibition of DNA binding.
E2F2 overexpressed in stable transfected 3T3 cells (nuclear extract), sequence (Q14209 whole entry): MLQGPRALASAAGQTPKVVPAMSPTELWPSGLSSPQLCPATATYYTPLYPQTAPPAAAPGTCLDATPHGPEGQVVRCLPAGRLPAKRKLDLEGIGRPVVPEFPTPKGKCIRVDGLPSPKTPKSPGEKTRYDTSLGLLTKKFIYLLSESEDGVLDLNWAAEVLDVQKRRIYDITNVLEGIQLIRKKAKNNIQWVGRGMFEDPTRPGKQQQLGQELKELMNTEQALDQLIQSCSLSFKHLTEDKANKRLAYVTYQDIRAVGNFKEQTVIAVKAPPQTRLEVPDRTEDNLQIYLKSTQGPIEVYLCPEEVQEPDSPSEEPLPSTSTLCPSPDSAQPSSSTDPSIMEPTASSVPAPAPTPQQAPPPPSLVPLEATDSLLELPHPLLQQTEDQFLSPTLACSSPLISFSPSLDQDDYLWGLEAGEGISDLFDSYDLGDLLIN
Description: as §5
For assay [15], the target named is E2F3 overexpressed in stable transfected 3T3 cells (nuclear extract) (UniProt O00716 1-465, limits assumed). Description: band shift, extract of 3T3 cells overexpressing E2F3; inhibition of DNA binding.
E2F3 overexpressed in stable transfected 3T3 cells (nuclear extract), sequence (O00716 whole entry): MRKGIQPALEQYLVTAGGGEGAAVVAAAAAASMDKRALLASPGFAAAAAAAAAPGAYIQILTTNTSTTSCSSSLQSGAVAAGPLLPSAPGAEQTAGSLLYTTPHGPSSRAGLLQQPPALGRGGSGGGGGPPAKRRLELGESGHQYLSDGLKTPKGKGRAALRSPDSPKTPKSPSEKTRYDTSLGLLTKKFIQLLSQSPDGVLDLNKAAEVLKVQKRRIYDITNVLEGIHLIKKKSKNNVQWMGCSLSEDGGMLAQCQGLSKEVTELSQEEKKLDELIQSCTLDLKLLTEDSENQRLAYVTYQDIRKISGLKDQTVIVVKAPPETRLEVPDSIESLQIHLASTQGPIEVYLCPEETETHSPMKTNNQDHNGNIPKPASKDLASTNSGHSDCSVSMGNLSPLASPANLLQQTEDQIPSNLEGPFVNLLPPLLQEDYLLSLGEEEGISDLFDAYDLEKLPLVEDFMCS
Description: as §5
Assay [16] concerns the target E2F4 overexpressed in stable transfected 3T3 cells (nuclear extract) (UniProt Q16254 2-413, limits assumed). Put plainly: band shift, extract of 3T3 cells overexpressing E2F4; inhibition of DNA binding.
Description: as §5
The target of assay [17] is E2F5 overexpressed in stable transfected 3T3 cells (nuclear extract) (UniProt Q15329 1-346, limits assumed). Put plainly: band shift, extract of 3T3 cells overexpressing E2F5; inhibition of DNA binding.
E2F5 overexpressed in stable transfected 3T3 cells (nuclear extract), sequence (Q15329 whole entry): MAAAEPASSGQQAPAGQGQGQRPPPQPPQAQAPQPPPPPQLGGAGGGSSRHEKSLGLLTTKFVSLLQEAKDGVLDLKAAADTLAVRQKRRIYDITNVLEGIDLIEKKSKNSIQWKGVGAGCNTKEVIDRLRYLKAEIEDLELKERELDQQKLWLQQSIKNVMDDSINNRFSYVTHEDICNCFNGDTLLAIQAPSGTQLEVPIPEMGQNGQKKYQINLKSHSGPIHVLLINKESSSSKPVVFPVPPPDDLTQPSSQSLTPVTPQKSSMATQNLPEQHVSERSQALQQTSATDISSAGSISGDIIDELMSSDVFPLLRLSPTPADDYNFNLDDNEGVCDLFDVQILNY
Description: as §5
Assay [18] deals with T2, recombinant E2F1 N1-His (64-301) with …. Description: deletion analysis; grade of inhibition of E2F DNA binding (band shift).
Description: as §5
Assay [19] shares this target. Description: alanine scanning; grade of inhibition of E2F DNA binding (band shift). The source holds these as a separate data set.
Description: as §5

Ends that are not written are not given here. Peptide text beside a SMILES is read from it. Some results are limits rather than exact numbers.

In general, IC50 refers to the concentration that gives 50% inhibition.

T1 sequence (Q01094 64-301): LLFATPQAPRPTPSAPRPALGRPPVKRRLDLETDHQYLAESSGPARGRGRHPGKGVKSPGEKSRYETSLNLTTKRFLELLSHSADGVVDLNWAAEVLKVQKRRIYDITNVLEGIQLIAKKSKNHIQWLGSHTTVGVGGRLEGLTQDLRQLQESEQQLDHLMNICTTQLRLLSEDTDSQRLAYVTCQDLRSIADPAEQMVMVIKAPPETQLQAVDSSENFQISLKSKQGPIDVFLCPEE
T1 sequence (Q14186 84-249 partner): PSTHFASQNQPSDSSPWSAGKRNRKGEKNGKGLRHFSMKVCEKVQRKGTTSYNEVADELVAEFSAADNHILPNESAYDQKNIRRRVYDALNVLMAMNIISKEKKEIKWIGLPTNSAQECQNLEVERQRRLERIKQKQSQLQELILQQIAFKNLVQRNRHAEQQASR
T2 sequence (Q01094 64-301, chain 1 of 2): as the sequence (Q01094 64-301) above
T2 sequence (Q14186 84-249, chain 2 of 2): as the sequence (Q14186 84-249 partner) above
E2F4 overexpressed in stable transfected 3T3 cells (nuclear extract), sequence (Q16254 2-413 limits assumed): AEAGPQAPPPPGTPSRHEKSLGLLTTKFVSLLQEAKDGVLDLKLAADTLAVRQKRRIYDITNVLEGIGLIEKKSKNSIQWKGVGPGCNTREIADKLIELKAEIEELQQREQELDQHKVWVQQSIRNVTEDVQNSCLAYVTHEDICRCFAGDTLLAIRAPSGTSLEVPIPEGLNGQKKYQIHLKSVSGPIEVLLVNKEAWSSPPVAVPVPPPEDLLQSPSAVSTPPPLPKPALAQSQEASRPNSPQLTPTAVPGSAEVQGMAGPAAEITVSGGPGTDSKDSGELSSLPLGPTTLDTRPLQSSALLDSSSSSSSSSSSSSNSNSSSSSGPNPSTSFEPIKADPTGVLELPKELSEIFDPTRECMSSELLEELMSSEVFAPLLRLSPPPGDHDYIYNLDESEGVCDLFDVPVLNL

`CC[C@H](C)[C@H](NC(=O)[C@H](CCCNC(=N)N)NC(=O)[C@H](CO)NC(=O)CN)C(=O)N[C@@H](CC(C)C)C(=O)N[C@H](C(=O)N[C@@H](Cc1ccccc1)C(=O)N[C@@H](CCCNC(=N)N)C(=O)N[C@@H](CO)C(=O)NCC(=O)N[C@@H](CO)C(=O)N[C@@H](Cc1c[nH]c2ccccc12)C(=O)N[C@@H](Cc1ccc(O)cc1)C(=O)N[C@@H](C)C(=O)N[C@@H](CO)C(=O)O)[C@@H](C)O` [SEQ ID NO:5, GSRILTFRSGSWYAS] (H-GSRILTFRSGSWYAS-OH): in [1], the IC50 fell in the range of 50 to 100 µM.

Take “MAP-4-SEQ ID NO:39-TAT: control peptide; SEQ ID NO:39 is SEQ ID NO:2 with 2 alanine substitutions at positions 1 and 4, i.e. AVRAHF (not fully specified (N-terminus, C-terminus); also: MAP-4 branched core) [reference compound]”: the inhibition of proliferation entry in assay [2], in [7], in assay [8] and in assay [9] was “not displayed” each time. Besides, the “inhibition of cell proliferation / cell growth” value in assay [3] is “no inhibitory effects”. Moreover, the “hallmarks of apoptosis after staining” value in [4] is recorded as “No effects”. In addition, the DNA laddering entry in assay [5] was “No effects”. In addition, in [6], the “effect on transcription from CycA-Luciferase construct” value is listed as “No effect”.

On to WVRWAF [SEQ2-A5], for which the inhibition in assay [1] is given as 0.

On to WARWHF [SEQ2-A2], for which, in [1], the inhibition is recorded as 0.

For `CC[C@H](C)[C@H](N)C(=O)N[C@@H](Cc1c[nH]c2ccccc12)C(=O)N[C@@H](CC(C)C)C(=O)N[C@@H](CO)C(=O)NCC(=O)N[C@@H](CC(C)C)C(=O)N[C@@H](CO)C(=O)N[C@@H](CCCNC(=N)N)C(=O)NCC(=O)N[C@H](C(=O)N[C@@H](Cc1c[nH]c2ccccc12)C(=O)N[C@H](C(=O)N[C@@H](CO)C(=O)N[C@@H](Cc1ccccc1)C(=O)N1CCC[C@H]1C(=O)O)C(C)C)C(C)C` [SEQ ID NO:4, IWLSGLSRGVWVSFP] (H-IWLSGLSRGVWVSFP-OH), the IC50 in assay [1] was in the range of 50 to 100 µM.

With WVAWHF [SEQ2-A3], in assay [1], the inhibition stood at 0.

`CC(C)[C@H](NC(=O)[C@@H](N)Cc1c[nH]c2ccccc12)C(=O)N[C@@H](CCCNC(=N)N)C(=O)N[C@@H](Cc1c[nH]c2ccccc12)C(=O)N[C@@H](Cc1c[nH]cn1)C(=O)N[C@@H](Cc1ccccc1)C(=O)O` [SEQ ID NO:2, WVRWHF] (H-WVRWHF-OH): the IC50 in assay [1] is 50 to 100 µM.

B1: peptide SEQ ID NO:2 (WVRWHF) (peptide)
peptide: WVRWHF
notes: Synthetic peptide in the band shift assays
With B1, the concentration without inhibition in assay [10] and in assay [11] was greater than 500 µM throughout. Also, in assay [12], the binding result is “binds”.

Regarding WVAWHF [SEQ2-A3 (WVAWHF)], the binding result in [12] is “binds”.

WARWHF [SEQ2-A2 (WARWHF)]: the binding result in assay [12] is given as “binds”.

Consider WVRWAF [SEQ2-A5 (WVRWAF)], for which, in [12], the binding result was “binds”.

B2: MAP4-SEQ ID NO:5 (peptide)
peptide: GSRILTFRSGSWYAS
modifications: also: tetravalent MAP core: 4 copies joined by C-terminus to Lys2-Lys-X core
notes: Branched tetravalent peptide on a lysine MAP core
In the case of B2, the IC50 in assay [10] was 10 µM; in assay [11], 10 µM; in [13], roughly 30 µM; in assay [14], roughly 30 µM; in assay [15], roughly 30 µM; in assay [16], roughly 30 µM. Further, in assay [17], the IC50 was roughly 30 µM.

GSRILTFRSGSWYAS [peptide SEQ ID NO:5 (…)]: the IC50 in assay [10] and in assay [11] was 100 µM in each case.

B3: peptide SEQ ID NO:5 (GSRILTFRSGSWYAS) (peptide)
peptide: GSRILTFRSGSWYAS
notes: as for B1
Regarding B3, the binding result in assay [18] is “binds”.

Take GSAILTFRSGSWYAS [SEQ5-A3 (GSAILTFRSGSWYAS)]: the binding result in assay [19] is recorded as “binds”.

Regarding GSRILTFRSGSWAAS [SEQ5-A13 (GSRILTFRSGSWAAS)], in assay [19], the binding result is “binds”.

As for RILTFRSGSWYAS [SEQ5-5 (3-15) (RILTFRSGSWYAS)], the binding result in assay [18] is reported as “binds”.

On to SRILTFRSGSWY [SEQ5-8 (2-13) (SRILTFRSGSWY)], for which, in assay [18], the binding result was “binds”.

These data come from patent US6841385B2, “Transcription factor E2F DNA-binding domain inhibitor peptides and their use” (Topotarget UK Limited, priority 1999, dated 2005).
